T1: EGFR L858R peptide on HLA-A*33:03 (human)
T1 peptide: HVKITDFGR

B1: TCR (i) with CDR3 alpha SEQ ID NO: 1 and CDR3 beta SEQ ID NO: 13 (Table 2, rank 1) (TCR, V domains shown)
Valpha: KQEVTQIPAALSVPEGENLVLNCSFTDSAIYNLQWFRQDPGKGLTSLLLIQSSQREQTSGRLNASLDKSSGRSTLYIAASQPGDSATYLCAFIGHGGSQGNLIFGRGTSLIVHP
Vbeta: NAGVTQTPKFQVLKTGQSMTLQCAQDMNHEYMSWYRQDPGMGLRLIHYSVGAGITDQGEVPNGYNVSRSTTEDFPLRLLSAAPSQTSVYFCASSMQGAMSEQFFGPGTRLTVL
B2: TCR (ii) with CDR3 alpha SEQ ID NO: 2 and CDR3 beta SEQ ID NO: 14 (Table 2, rank 2) (TCR, V domains shown)
Valpha: KQEVTQIPAALSVPEGENLVLNCSFTDSAIYNLQWFRQDPGKGLTSLLLIQSSQREQTSGRLNASLDKSSGRSTLYIAASQPGDSATYLCAATGTYKYIFGRGTSLIVHP
Vbeta: NAGVTQTPKFQVLKTGQSMTLQCAQDMNHEYMSWYRQDPGMGLRLIHYSVGAGITDQGEVPNGYNVSRSTTEDFPLRLLSAAPSQTSVYFCASSPEFARALDNQPQHFGPGTRLTVL

Molecular target: T1, EGFR L858R peptide on HLA-A*33:03
Assay: multimer staining

binding result | Binder
recognises | B1
recognises | B2

Reference: patent publication US20240261403A1 (published 2024)
